Drawing on PMC9410881, this text covers stoichiometry N and other: MALS molecular weight (MW) for four substances.

In test [1] the target is Aca10 from Pseudomonas citronellolis (pcAca10), wild type (Pseudomonas citronellolis). The test can be described thus: SEC-MALS; Superdex 200 Increase 10/300 GL, SEC buffer (20 mM Tris-HCl pH 8.0, 150 mM NaCl), 0.5 ml/min, 20°C; self-association of Aca10. A general note: SEC sorts molecules by how far they enter the pores of the column.
The target of a further test is Aca10 D7K variant. The test can be described thus: SEC-MALS. Conditions: parent: 17.39.
A further test deals with Aca10 G49Y mutant. Put plainly: SEC-MALS. Conditions: parent: 17.39.
The next test has as its target Aca10 E52R mutant. Put plainly: SEC-MALS. The conditions noted are these: parent: 17.39.

In the case of “Aca10 from Pseudomonas citronellolis (pcAca10), wild type (natural protein)”, the stoichiometry N in test [1] turned out to be 2.
On to “Aca10 from Pseudomonas citronellolis (pcAca10), wild type D7K”, for which the other: MALS molecular weight (MW) in the test with Aca10 D7K variant came to 17 kDa.
For “Aca10 from Pseudomonas citronellolis (pcAca10), wild type G49Y”, the other: MALS molecular weight (MW) in the test with Aca10 G49Y mutant is 10.2 kDa.
“Aca10 from Pseudomonas citronellolis (pcAca10), wild type E52R”: the other: MALS molecular weight (MW) with Aca10 E52R mutant was 14.2 kDa.

The term stoichiometry N denotes a count of units in the complex or per binding partner.
